# Experimental data reported in the DeepSol protein solubility set.
# Experiment: soluble on expression in E. coli; label from the status in PepcDB or PDB records
row,Sequence,soluble on expression in E. coli
1,MAACGNPSAAVKFERLPTFAEPTHYNVRLSPCLNQFSFDGHATIDVTIKEATDVLKVHAQSLLIQSVSLITQPGDASKSLETSYDDKLNILTIKLPTTMQPQKVQLDFKFVGELNDKMRGFYRSQYKDKNGTEKFLASTQFESTYARYAFPCFDEPIYKATFDVTLEVENHLTALSNMNVISETPTADGKRKAVTFATSPKMSSYLVAFAVGELEYISAQTKSGVEMRVYTVPGKKEQGQYSLDLSVKCIDWYNEWFDIKYPLPKCDLIAIPDFSMGAMENWGLVTYREIALLVDPGVTSTRQKSRVALVVAHELAHLWFGNLVTMKWWTDLWLKEGFASFMEYMFVGANCPEFKIWLHFLNDELASGMGLDALRNSHPIEVEIDNPNELDEIYDSITYAKSNSVNRMLCYYLSEPVFQKGLRLYLKRFQYSNAVTQDLWTALSEASGQNVNELMSGWTQQMGFPVLKVSQRQDGNNRILTVEQRRFISDGGEDPKNSQWQVPITVAVGSSPSDVKARFLLKEKQQEFTIEGVAPGEWVKLNSGTTGFYRVEYSDEMLTAMLPDIASRRMPVLDRFGLINDLSALLNTGRVSIAQFVQVAASSAKEDEYVVWGAIDEGMSKLLACAREMSEDTLKSAKQLVVKMFEQTGAELGFAEQAGEDSQKMMLRSLVQARLARAGHQPTIDKFTQMFNDFLEKGTPIHPDIRLATFGVVARYGGKEGFDKLMNLRETTTFQEIERQTMVAMSQTPEESLLAQLFEYGFEKNKVRPQDQLYLFLGTGATHMGQQYAWKYFCEHIKEFLDKYGGANSSLFQRCLKFAGESFGNEKRAVEFQDFFCNCNVLSDTDRQTLARPIGQTVEAIRLNARLLESNRQIIENLLKQSNV,not soluble
2,MGSDKIHHHHHHMREISMDWNDLRFFLEVARTSSLTKTAIKLKVSQSTVSRRIGALESSLKTRLFLHHQTGYFLTDVGKEVLKYAEDVEGKVGTLEKKISGRDLAPAGIVRLATAVTLANHLIIPQLPRFMACYPEIILELVTGVNTVSVVRNDADIALRLVRPEQNSLKIRKVGVVASAVYGSETYVREHPAPEDNPIIGRSFITWDKSFSHLPSARWLNEHFPDMTSTLALTSLVTQIAAANAGLGLAVLPCFIAAQNSDLVEVIHTQRVFSEDLWLVSHTDLIASSRIRVVADFLMEIIAEAHLA,not soluble
3,MLLLPSAADGRGTAITHALTSASTLCQVEPVGRWFEAFVKRRNRNASASFQELEDKKELSEESEDEELQLEEFPMLKTLDPKDWKNQDHYAVLGLGHVRYKATQRQIKAAHKAMVLKHHPDKRKAAGEPIKEGDNDYFTCITKAYEMLSDPVKRRAFNSVDPTFDNSVPSKSEAKDNFFEVFTPVFERNSRWSNKKNVPKLGDMNSSFEDVDIFYSFWYNFDSWREFSYLDEEEKEKAECRDERRWIEKQNRATRAQRKKEEMNRIRTLVDNAYSCDPRIKKFKEEEKAKKEAEKKAKAEAKRKEQEAKEKQRQAELEAARLAKEKEEEEVRQQALLAKKEKDIQKKAIKKERQKLRNSCKTWNHFSDNEAERVKMMEEVEKLCDRLELASLQCLNETLTSCTKEVGKAALEKQIEEINEQIRKEKEEAEARMRQASKNTEKSTGGGGNGSKNWSEDDLQLLIKAVNLFPAGTNSRWEVIANYMNIHSSSGVKRTAKDVIGKAKSLQKLDPHQKDDINKKAFDKFKKEHGVVPQADNATPSERFEGPYTDFTPWTTEEQKLLEQALKTYPVNTPERWEKIAEAVPGRTKKDCMKRYKELVEMVKAKKAAQEQVLNASRAKK,not soluble
4,MSLTRRSDTSLRAALIIQNWYRGYKARLKARQHYALTIFQSIEYADEQGQMQLSTFFSFMLENYTHIHKEELELRNQSLESEQDMRDRWDYVDSIDVPDSYNGPRLQFPLTCTDIDLLLEAFKEQQILHAHYVLEVLFETKKVLKQMPNFTHIQTSPSKEVTICGDLHGKLDDLFLIFYKNGLPSERNPYVFNGDFVDRGKNSIEILMILCVSFLVYPNDLHLNRGNHEDFMMNLRYGFTKEILHKYKLHGKRILQILEEFYAWLPIGTIVDNEILVIHGGISETTDLNLLHRVERNKMKSVLIPPTETNRDHDTDSKHNKVGVTFNAHGRIKTNGSPTEHLTEHEWEQIIDILWSDPRGKNGCFPNTCRGGGCYFGPDVTSKILNKYQLKMLIRSHECKPEGYEICHDGKVVTIFSASNYYEEGSNRGAYIKLCSGTTPRFFQYQVTKATCFQPLREGHHHHHH,not soluble
5,MSLSNKDIRVVVGMSGGVDSSVTAHVLKEQGYDVIGIFMKNWDDTDENGVCTATEDYNDVIEVCNQIGIPYYAVNFEKEYWDKVFTYFLDEYKKGRTPNPDVMCNKEIKFKAFLDHAMNLGADYVATGHYARIHRHEDGHVEMLRGVDNNKDQTYFLNQLSQQQLSKVMFPIGDIEKSEVRRIAEEQGLVTAKKKDSTGICFIGEKNFKTFLSQYLPAQPGDMITLDGKKMGKHSGLMYYTIGQRHGLGIGGDGDPWFVVGKNLKDNVLYVEQGFHHDALYSDYLIASDYSFVNPEDNDLDQGFECTAKFRYRQKDTKVFVKRENDHALRVTFAEPVRAITPGQAVVFYQGDVCLGGATIDDVFKNEGQLNYVVEGHHHHHH,soluble
6,MSKQDLLLEIGLEEMPARFLNESMVQLGDKLTGWLKEKNITHGEVKLFNTPRRLAVFVKDVAEKQDDIKEEAKGPAKKIALDADGNWTKAAIGFSKGQGANVEDLYIKEVKGIEYVFVQKFQAGQETKSLLPELSGLITSLHFPKNMRWGNEDLRYIRPIKWIVALFGQDVIPFSITNVESGRTTQGHRFLGHEVSIESPSAYEEQLKGQHVIADPSVRKQMIQSQLETMAAENNWSIPVDEDLLDEVNHLVEYPTALYGSFESEFLSIPEEVLVTTMKEHQRYFPVKDKNGDLLPHFITVRNGNSHAIENVARGNEKVLRARLSDASFFYKEDQKLNIDANVKKLENIVFHEELGSLADKVRRVTSIAEKLAVRLQADEDTLKHVKRAAEISKFDLVTHMIYEFPELQGIMGEKYARMLGEDEAVAAAVNEHYMPRSAGGETPSTFTGAVVAMADKLDTIASFFSIGVIPTGSQDPYGLPRQASGIVAILLDRNWGISFEELLTFVQTDKENELLDFFTQRLKYVLNAEQIRHDVIDAVLESSELEPYSALHKAQVLEQKLGAPGFKETAEALGRVISISKKGVRGDIQPDLFENEYEAKLFDAYQTAKENLQENFSKKDYEAALASLAALKEPIDAYFDHTMVIADNESLKANRLAQMVSLADEIKSFANMNALI,not soluble
7,MGSDKIHHHHHHMALMFPRLARNFVKNGYFPTDEPTLERALNALMPSDGSMCILDPCAGEGVAIAEAAHALGREQVKAFAVEFDAERARHARGLVDHCLHADLMDAMISKQSFGLLWLNPPYGDLSKDVNGNIGYQGQGRARLEKLFYQRSLSLLQYGGVLVFIVPGYVLDAELVGWLTRHYTDLRIYRAVETQFKQVVIFGRRVRQREQAPDGVKAVRNLLLQVGLGEVEAEELPSDWPFLPYIVPASPAEPEHFFRVTMEPEQFADEVGRLQGLWPSLDTHLGAAQQSLRPPARALSHWHLALALAAGAISGVVRSKTGRVLVVKGDTHKDKTLQREFTEREDGSIAETRILTDKFVPVIRAWDMTPSSATRGEVLTIR,not soluble
8,MKKILLVLNHSLAGFGSDEQAQLKPSGKKAPLGPGVTLLPFLQKQGAEIVATLYCGDQYYLENEEEVAKKFIGFAKKFHADAVLCGPAMHYPNFGEMAARLACKFNAAGIPAIAAMAEENPAVSHYYQQVPIVKMPKKGGIGLNNSFKQMAQLVVAKANGKETKQLEETSCF,not soluble
9,MNIGKPRKLGKTIEDIEEGDSLSLTESIEDKDLLLYLGLTNDANPLYIQHDYAQKTEYEKPIVPSIMLMGIITSAISKHLPGPGSHVVNFSVNFVEPVFHYETLTFQLEVIKVDKMKDVITISVEAVNEQENRVLDAVVMVQPPQVTIDELTEKEGTLTYE,soluble
10,MLFKRYGDPISLLRTYRLCDLMEFIFYVQEVEQEEKIYNQWLHTQMTQSLKEFKDQQKYRPLRKNKAKSTTKEEQQKALDFASQFVKPRKEGEVS,not soluble
11,MLMVVPLSEMGPGDKGIVVNILGGHNARQKLVSMGLTPGATIQVLESHPMGPIIISVGGVRFAIGKGLAGRVMVRKL,soluble
12,MAVSATGFEGFEKRLEISFFETTDFLDPQGKSLRSLTKSQLDEILTPAECTIVSSLTNSFVDSYVLSESSLFVYPYKIIIKTCGTTKLLLSIPHILRLADSLCLTVKSVRYTRGSFIFPGAQSYPHRSFSEEVALLDDYFGKLNAGSKAFVMGGSDNNPQRWHVYSASSTEESAVCDKPVYTLEMCMTGLDNIKASVFFKTNSVSASEMTISSGIRNILPGSEICDFNFEPCGYSMNSIEGDAVSTIHVTPEDGFSYASFETVGYDLKALNFKELVDRVLVCFGPEEFSVAVHANLGTEVLASDCVADVNGYFSQERELEELGLGGSVLYQRFVKTVECCSPKSTLGFC,not soluble
